Test results: publication PMC12444171, “Chromatin remodeler BRD9 represses transcription of PPARα target genes, including CPT1A to suppress lipid metabolism” (Journal of Lipid Research, 2025)

Target: T1, BRD7-His (bromodomain-containing protein 7 with His tag) (human, UniProt Q9NPI1 1-651)
T1 construct: Bromodomain-containing protein 7, human; source: HEK293T, transfected, in lysate; for the pull-down purified from HEK293T cell lysates
T1 sequence (looked up): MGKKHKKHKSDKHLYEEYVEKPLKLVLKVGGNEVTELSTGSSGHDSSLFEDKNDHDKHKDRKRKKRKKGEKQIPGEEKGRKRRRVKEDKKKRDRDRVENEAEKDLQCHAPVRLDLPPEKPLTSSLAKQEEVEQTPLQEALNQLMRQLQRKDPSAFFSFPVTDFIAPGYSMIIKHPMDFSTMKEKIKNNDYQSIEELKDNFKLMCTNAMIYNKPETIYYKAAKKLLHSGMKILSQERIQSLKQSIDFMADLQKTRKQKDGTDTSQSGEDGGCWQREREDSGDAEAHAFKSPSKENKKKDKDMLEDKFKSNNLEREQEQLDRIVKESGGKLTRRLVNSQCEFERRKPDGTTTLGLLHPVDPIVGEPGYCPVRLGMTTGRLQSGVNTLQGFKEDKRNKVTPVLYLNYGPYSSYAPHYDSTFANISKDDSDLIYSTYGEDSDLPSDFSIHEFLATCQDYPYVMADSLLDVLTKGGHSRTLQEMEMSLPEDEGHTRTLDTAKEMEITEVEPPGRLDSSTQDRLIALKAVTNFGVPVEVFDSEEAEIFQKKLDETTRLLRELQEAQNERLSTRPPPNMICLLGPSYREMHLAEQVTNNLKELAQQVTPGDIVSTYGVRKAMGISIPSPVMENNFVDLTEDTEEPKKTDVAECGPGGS
Experiment: co-IP; HEK293T cells co-transfected with FLAG-PPARα and BRD7-His or BRD9-His; lysate (0.3 M NaCl, 0.5% NP-40, pH 8.0) on anti-His tag antibody-Dynabeads Protein G, 2 h at room temperature; Western blot; in Fig. 5C the cells were treated with 30 μM WY-14643 and/or 40 μM BI-9564 for 48 h (interaction markedly attenuated)
Conditions: partners not purified

binding result: binds
B1: FLAG-PPARα (peroxisome proliferator-activated receptor α with 3×FLAG) (natural protein, human, UniProt Q07869 1-468, looked up)
chain: MVDTESPLCPLSPLEAGDLESPLSEEFLQEMGNIQEISQSIGEDSSGSFGFTEYQYLGSCPGSDGSVITDTLSPASSPSSVTYPVVPGSVDESPSGALNIECRICGDKASGYHYGVHACEGCKGFFRRTIRLKLVYDKCDRSCKIQKKNRNKCQYCRFHKCLSVGMSHNAIRFGRMPRSEKAKLKAEILTCEHDIEDSETADLKSLAKRIYEAYLKNFNMNKVKARVILSGKASNNPPFVIHDMETLCMAEKTLVAKLVANGIQNKEAEVRIFHCCQCTSVETVTELTEFAKAIPGFANLDLNDQVTLLKYGVYEAIFAMLSSVMNKDGMLVAYGNGFITREFLKSLRKPFCDIMEPKFDFAMKFNALELDDSDISLFVAAIICCGDRPGLLNVGHIEKMQEGIVHVLRLHLQSNHPDDIFLFPKLLQKMADLRQLVTEHAQLVQIIKKTESDAALHPLLQEIYRDMY
modifications: acetylated lysine residue(s), positions not given
notes: the sites are not mapped; source: HEK293T, transfected (pcDNA3.1), in lysate; for the pull-down captured from lysate on anti-FLAG antibody-Dynabeads Protein G and washed; not shown: 3×FLAG, N-terminal, kept
